The values that follow come from patent publication US20220184120A1 (MINERVA BIOTECHNOLOGIES, published 2022).

First the molecules themselves.
T1: PSMGFR peptide (Primary Sequence of the MUC1 Growth Factor Receptor)
T1 construct: synthetic peptide immobilised on ELISA plates; also called MUC1* peptide; MUC1* extra cellular domain peptide
T1 peptide: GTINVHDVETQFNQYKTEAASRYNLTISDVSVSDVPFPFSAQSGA

T2: N+9/C-9 peptide (9 amino acids added onto the N-terminus and 9 deleted from the C-terminus of PSMGFR)
T2 peptide: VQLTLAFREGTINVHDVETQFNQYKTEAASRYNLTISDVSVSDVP

T3: N-19/C-5 peptide
T3 peptide: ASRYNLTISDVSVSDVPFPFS

T4: N-10 peptide (PSMGFR minus 10 amino acids from the N-terminus)
T4 construct: also called N-10 PSMGFR; PSMGFR N-10
T4 peptide: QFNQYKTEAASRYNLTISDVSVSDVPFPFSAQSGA

T5: N-19 peptide
T5 peptide: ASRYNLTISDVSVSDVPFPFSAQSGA

T6: N-26 peptide
T6 peptide: ISDVSVSDVPFPFSAQSGA

T7: N-30 peptide
T7 peptide: SVSDVPFPFSAQSGA

T8: N-10/C-5 peptide
T8 peptide: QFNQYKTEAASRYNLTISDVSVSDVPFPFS

T9: MUC1 transmembrane cleavage product after cleavage of full-length MUC1 by MMP9 (UniProt P15941 1110-1255)
T9 construct: on HCT-MUC1-18 (or T47D) cells treated with MMP9; also called MUC1* generated by cleavage by MMP9; MMP9 cleaved form of MUC1
T9 sequence (looked up): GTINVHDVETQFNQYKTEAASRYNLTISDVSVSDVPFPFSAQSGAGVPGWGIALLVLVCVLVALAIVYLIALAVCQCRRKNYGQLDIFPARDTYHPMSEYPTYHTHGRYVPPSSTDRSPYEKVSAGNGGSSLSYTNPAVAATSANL

T10: MUC1* (cleaved MUC1) as it occurs on MUC1/MUC1* positive cancer cell lines (human, UniProt P15941 1110-1255, limits assumed)
T10 construct: the cell line is named under assay; also called MUC1* positive cancer cells; ZR-75-1 aka 1500
T10 sequence (looked up): T9 sequence (looked up)

T11: N+20/C-27 peptide (20 amino acids added onto the N-terminus and 27 deleted from the C-terminus of PSMGFR)
T11 peptide: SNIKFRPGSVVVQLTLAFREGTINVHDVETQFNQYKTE

T12: NME7-AB (recombinant) (Homo sapiens (Human), UniProt Q9Y5B8 92-376)
T12 construct: the entry ends in a His tag; also called NM23-H7
T12 sequence: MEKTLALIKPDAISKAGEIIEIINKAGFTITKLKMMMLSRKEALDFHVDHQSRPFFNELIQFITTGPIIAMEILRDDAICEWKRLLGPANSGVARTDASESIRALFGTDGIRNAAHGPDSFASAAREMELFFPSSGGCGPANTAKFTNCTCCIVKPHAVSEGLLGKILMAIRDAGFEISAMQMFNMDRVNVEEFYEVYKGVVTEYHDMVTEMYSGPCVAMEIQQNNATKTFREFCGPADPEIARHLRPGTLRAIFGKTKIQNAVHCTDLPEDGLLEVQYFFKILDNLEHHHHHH

B1: humanized MN-C2 scFv (scFv)
scFv: EVQLVESGGGLVKPGGSLRLSCAASGFTFSGYAMSWVRQAPGKGLEWVSTISSGGTYIYYPDSVKGRFTISRDNAKNSLYLQMNSLRAEDTAVYYCARLGGDNYYEYFDVWGKGTTVTVSSGGGGSGGGGSGGGGSDIVLTQSPASLAVSPGQRATITCRASKSVSTSGYSYMHWYQQKPGQPPKLLIYLASNLESGVPARFSGSGSGTDFTLTINPVEANDTANYYCQHSRELPFTFGGGTKVEIKRT
notes: also called huMN-C2scFv; huMNC2scFv; not shown: 6xHis tag detected with Anti-Penta-His antibody
B2: 8A9 mouse monoclonal antibody (antibody, V domains shown)
VH: EVELVESGGGLVQPGGSLRLSCATSGFTFTDHYMSWVRQPPGKALEWLGFIRNKANGYTTEYSASVKGRFTISRDNSQSILYLQMKTLRTEDSATYYCARPSDWDSWFAYWGQGTLVTVSA
VL: DVLMTQTPLSLPVSLGDQASISCRSSQSIVHSNGNTYLDWYLQKPGQSPKLLIYRVSNRFSGVPDRFSGSGSGTDFTLKISRVEAEDLGLYYCFQGSHVPWAFGGGTKLEIK
notes: raised against N+9/C-9; also called N+9/C-9 antibody 8A9
B3: 45C11 mouse monoclonal antibody (antibody, V domains shown)
VH: EVQLQQSGADLVKPGASVKLSCTASGFNIKDTFMHWVKQRPEQGLEWIGRIDPANGNTKYDPKFQGKATITADTSSNTAYLQLSSLTSEDTAVYYCAKPYGNYGYYYALDYWGQGTSVTVSS
VL: DVQITQSPSYLAASPGETITINCRASKSISKYLAWYQEKPGKTNKLLIYSGSTLQSGIPSRFSGSGSGTDFTLTISSLEPEDFAMYYCQQHNEFPWTFGGGTKLEIK
notes: raised against N+20/C-27; also called N+20/C-27 antibody 45C11
B4: MN-E6 mouse monoclonal anti-MUC1* antibody (antibody, V domains shown)
VH: EVKVVESGGDLVKPGGSLKLSCVVSGFTFSRYGMSWVRQTPGKRLEWVATISGGGTYIYYPDSVKGRFTISRDNAKNTLYLQMSSLKSEDTAMYHCTRDNYGRNYDYGMDYWGQGTSVTVSS
VL: QIVLTQSPAIMSASPGEEVTLTCSATSSVSYIHWFQQRPGTSPKLWIYSTSNLASGVPVRFSGSGYGTSYSLTISRMEAEDAATYYCQQRSSSPFTFGSGTKLEIK
notes: mouse monoclonal raised against PSMGFR; also called Min-E6
B5: C-10 peptide (PSMGFR minus 10 amino acids from the C-terminus) (peptide)
peptide: GTINVHDVETQFNQYKTEAASRYNLTISDVSVSDV
notes: also called C-10 PSMGFR; PSMGFR C-10

For experiment [1], the target named is B5. Briefly: ELISA (recap in IHC legend). For orientation: An ELISA detects its analyte on a solid surface through an enzyme-linked reagent.
The target in experiment [2] is T1, PSMGFR peptide (Primary Sequence of the …). The experiment is described as follows: ELISA, PSMGFR peptide on plate (FIG. 5). The method, then: Humanized MN-C2 scFv is then incubated with the surface, washed and detected according to standard methods.
In experiment [3] the target is T2, N+9/C-9 peptide (9 amino acids added …). The experiment is described as follows: ELISA (FIG. 66).
The target in experiment [4] is T1, PSMGFR peptide (Primary Sequence of the …). Briefly: ELISA (FIG. 69). The procedure: (§1) In order to further refine the epitopes to which each antibody binds, a series of smaller peptides derived from the PSMGFR sequence were synthesized: N−30 (SEQ ID NO:7), N−26 (SEQ ID NO:6), N−19 (SEQ ID NO:4), N−10/C−5 (SEQ ID NO:8), N−19/C−5 (SEQ ID NO:9). Each of the antibodies was tested in an ELISA assay for their ability to bind to this refined set of peptides, plus PSMGFR, N−10 and C−10 peptides (FIG. 67-69).

For a further experiment, the target named is T3, N-19/C-5 peptide. Briefly: ELISA (FIG. 69). The method, then:
as §1

In experiment [5] the target is T4, N-10 peptide (PSMGFR minus 10 amino …). The experiment is described as follows: ELISA (FIG. 69). The procedure:
as §1

Experiment [6] deals with B5. The experiment is described as follows: ELISA (FIG. 69). The method, then:
as §1

The target of another experiment is T5, N-19 peptide. Briefly: ELISA (FIG. 69). The procedure:
as §1

The target of a further experiment is T6, N-26 peptide. Briefly: ELISA (FIG. 69). The method, then:
as §1

A further experiment addresses T7, N-30 peptide. Briefly: ELISA (FIG. 69). The procedure: as §1
The next experiment addresses T8, N-10/C-5 peptide. Briefly: ELISA (FIG. 69). The method, then:
as §1

The target of experiment [7] is T9, MUC1 transmembrane cleavage product …. Briefly: flow cytometry, HCT-MUC1-18 cells + enzyme (FIG. 75L). The method, then: (§2) Antibodies generated by immunization with PSMGFR, N+20/C−27, or N+9/C−9 were tested for their ability to recognize MUC1 after it is cleaved by MMP9. […] To HCT-MUC1-18 cells was added either a catalytically active MMP9 or MMP2. The enzymes, added over a range of concentrations, were incubated with the cells for 24 hours. The resultant cells were then incubated with the various antibodies and analyzed by FACS to determine which bound to a MUC1 cleavage product produced by cleavage by MMP9 (FIG. 75A-75N). […] Each bar graph is labeled with both the name of the antibody used in that assay and its cognate epitope. The order of the graphs from right to left corresponds to the distance from the cell surface of the antibody's cognate epitope. […] For the greatest degree of cancer specificity, the antibody should recognize a conformational epitope of a MUC1 cleavage product created when MUC1 is cleaved by MMP9.
A general note: In flow cytometry, cells or beads pass a laser one at a time.

The target of experiment [8] is T10, MUC1* (cleaved MUC1) as it occurs on …. The experiment is described as follows: flow cytometry, panel of cancer cell lines (FIGS. 80-87).
The target of experiment [9] is T4, N-10 peptide (PSMGFR minus 10 amino …). The experiment is described as follows: ELISA.
Experiment [10] has as its target T1, PSMGFR peptide (Primary Sequence of the …). The experiment is described as follows: ELISA (FIG. 65A). The text has this: The antibodies being tested were derived from animals immunized with the N+20/C−27 peptide. The first selection criteria was to confirm that the antibodies bound to the immunizing N+20/C−27 peptide. […] Although these antibodies were raised against the N+20/C−27 peptide, all but one, 45C11, still bind to the PSMGFR peptide. […] 1E4 was able to bind to the N+20/C−27 peptide, the PSMGFR and the N−10 peptide, consistent with the idea that its epitope must lie within the […] sequence. […] The color of the bars for each antibody in the ELISA graph are color coded to match the deductive cognate sequence, or a portion thereof, of that antibody.
This same ELISA assay was performed on the antibodies of the invention (FIG. 64-66 and FIG. 201). Note that only 20A10 exactly matches the binding profile of MNC2 and MNE6. 25E6, 28F9 and 18G12 are all able to bind to the N−10 peptide. 18B4 is the only antibody raised against the PSMGFR peptide that requires the 10 most N-terminal amino acids of the peptide. The color of the bars for each antibody in the ELISA graph are color coded to match the deductive cognate sequence, or a portion thereof, of that antibody. In addition, another set of antibodies was assayed by ELISA (FIG. 201). Of this set, B12, B2, B7, B9, 8C7F3, and H11 bound to the PSMGFR peptide, bound to the N−10 peptide, but not to the C−10 peptide (FIG. 201).

The target of experiment [11] is T9, MUC1 transmembrane cleavage product …. The experiment is described as follows: flow cytometry, HCT-MUC1-18 cells + enzyme (FIG. 75K). The procedure:
as §2

Experiment [12] addresses B5. Briefly: ELISA.
Experiment [13] deals with T1, PSMGFR peptide (Primary Sequence of the …). The experiment is described as follows: ELISA (FIG. 2C).
The target of experiment [14] is T11, N+20/C-27 peptide (20 amino acids added …). The experiment is described as follows: ELISA (FIG. 63). The procedure:
(§3) ELISA assays were performed to determine if, in addition to recognizing their immunizing peptide, they recognized PSMGFR, N−10 or C−10. In addition, they were tested for their ability to bind to N+20/C−27, N+9/C−9. We first did the ELISA assay on our set of reference antibodies, MNC2, MNE6, which we know are cancer-specific plus MNC3, which we know recognizes stem cells and progenitor cells (FIG. 63A-63B). None of the reference antibodies bound to the N+20/C−27 peptide. MNC2 and MNE6 cannot bind to PSMGFR peptides with 27, 10 or 9 C-terminal deletions, however, MNC3 binds to C−10 and to N+9/C−9 peptides.

Experiment [15] deals with T2, N+9/C-9 peptide (9 amino acids added …). Briefly: ELISA (FIG. 63A). The procedure:
as §3

Experiment [16] has as its target T4, N-10 peptide (PSMGFR minus 10 amino …). Briefly: ELISA (FIG. 2B-2C).
A further experiment deals with T12, NME7-AB (recombinant). The experiment is described as follows: ELISA (FIG. 2A). The procedure:
(§4) FIGS. 2A-2I show results of ELISA assays. MUC1* peptides PSMGFR, PSMGFR minus 10 amino acids from the N-terminus aka N−10, or PSMGFR minus 10 amino acids from the C-terminus, aka C−10 are immobilized on the plate and the following are assayed for binding: NME7-AB (FIG. 2A), MN-C2 monoclonal antibody (FIG. 2B), MN-E6 monoclonal antibody (FIG. 2C), or dimeric NME1 (FIG. 2D). […] MUC1* peptides PSMGFR minus 10 amino acids from the N-terminus aka N−10, or PSMGFR minus 10 amino acids from the C-terminus, aka C−10, are immobilized on the plate and the following are assayed for binding: MN-C3 (FIG. 2E) and MN-C8 (FIG. 2F).

The target of the next experiment is T13, dimeric NME1 (human, UniProt P15531 1-152, limits assumed).
T13 construct: also called NM23-H1 dimers; dimeric NM23-H1
T13 sequence (P15531 whole entry): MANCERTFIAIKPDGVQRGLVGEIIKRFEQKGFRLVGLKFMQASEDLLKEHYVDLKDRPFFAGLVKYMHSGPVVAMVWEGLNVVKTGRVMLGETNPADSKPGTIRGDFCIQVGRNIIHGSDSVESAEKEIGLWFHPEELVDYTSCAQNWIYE
The experiment is described as follows: ELISA (FIG. 2D). The procedure: as §4

In general, EC50 refers to the concentration needed to bring the measured effect to its halfway point. A high value points to a need for much substance. With B1, the binding result in experiment [1] is recorded as “no binding”. This molecule had an EC50 in [2] of about 0.333 µM.

Regarding B2, the binding result is “binds” in [3]; “no binding” in [4]; “no binding” with N-19/C-5 peptide; “no binding” in experiment [5]; “no binding” in experiment [6]; “no binding” with N-19 peptide. The binding result (with N-26 peptide; in the experiment with N-30 peptide; in the experiment with N-10/C-5 peptide; in experiment [7]; in experiment [8]) was “no binding” throughout.

For the molecule B3, the binding result in [9], in experiment [10], in experiment [11] and in [8] was “no binding” throughout.

On to B4, for which the binding result in experiment [12] was “no binding”; in [13], “binds”; in experiment [14], “no binding”; in experiment [15], “no binding (tested: 10 ug/mL or 1 ug/mL)”; in [16], “binds”.

Take B5: the binding result with NME7-AB (recombinant) and with dimeric NME1 was “no binding” each time.
